# Measurements: PMC12637021, “Talin–tensin3 interactions regulate fibrillar adhesion formation and tensin3 phase separation” (The Journal of Cell Biology, 2025)
# “Also recorded” adds a separate entry of the source.
# Legend:
# NIH3T3 cells [1] = experiment: client protein recruitment to tensin3 condensates; format: cell-based, mouse; conditions: co-expressed or endogenous
# Excerpt: Since the observed tensin3 condensates were derived from adhesion sites in a talin-regulated mechanosensitive manner, we wondered whether these condensates contain other adhesion components or signaling molecules. To address this question, we examined a selection of cell–matrix adhesion proteins that have been reported by others to be present in LLPS condensates. These proteins include LIMD1 ([Wang et al., 2021]), kindlin2 ([Hsu et al., 2023]), talin ([Hsu et al., 2023]; [Litschel et al., 2024]), KANK ([Guo et al., 2023]), tensin1 ([Lee et al., 2023]), vinculin ([Litschel et al., 2024]), and GIT1 ([Zhu et al., 2020]). We added the actin regulatory RhoGAP DLC1 to this selection, as it is known to bind tensin ([Liao et al., 2006]; [Shih et al., 2015]), and the RNA regulatory protein GIGYF1, which we had previously identified alongside many of the aforementioned proteins in tensin BioID datasets ([Atherton et al., 2022]). We also added stress granule components G3BP1 ([Tourrière et al., […]]) and TDP-43 ([Colombrita et al., 2009]). These proteins were either co-expressed as fluorescently tagged proteins (Fig. S4 I) or, where antibodies were available, probed endogenously in cells that formed GFP-TNS3 condensates (Fig. 8 A).
# (§1) Cells were fixed in 4% paraformaldehyde (PFA, Sigma-Aldrich), which had been prewarmed to 37°C for 15 min before being washed three times with PBS. For immunofluorescence staining, cells were permeabilized with 0.5% Triton X-100 (Sigma-Aldrich) at room temperature for 5 min before being washed three times with PBS. Blebbistatin (Tocris Bioscience) was diluted in dimethyl sulfoxide (Sigma-Aldrich) and used at a final concentration of 50 μM. The following primary antibodies were diluted in 1% bovine serum albumin (BSA, Sigma-Aldrich): mouse anti-α5 integrin (SNAKA51, 1:100, NBP2-50146; Novus Biologicals), rat anti-β1 integrin (9EG7, 1:200; 553715; BD Biosciences), mouse anti-FN (IST-9, 1:100, ab6328; Abcam), rabbit anti-tensin3 (1:200, HPA055338; Atlas), mouse anti-EEA1 (1:500, 68065-1-IG; Proteintech), mouse anti-LAMP1 (1:200, ab320851; Abcam), mouse anti-paxillin (349, 1:400, mab3060; Sigma-Aldrich), rabbit anti-talin1 (1:200, 82856-4-RR; Proteintech), mouse anti-vinculin (hVin1, 1:500, V9264; Sigma-Aldrich), rabbit anti-KANK2 (1:100, HPA015643; Sigma-Aldrich), rabbit anti-kindlin2 (1:100, 11453-1-AP; Proteintech), rabbit anti-GIT1 (1:200, 26247-1-AP; Proteintech), mouse anti-phosphotyrosine (4G10, 1:200, 05-321X; Sigma-Aldrich), rabbit anti-G3BP1 (1:600, 13057-2-AP; Proteintech), rabbit anti-TDP43 (1:400, 10782-2-AP; Proteintech), and rabbit anti-GIGYF1 (1:400, ab121784; Abcam). […]
# β1 integrin, TLNKO cells = experiment: β1 integrin activation by flow cytometry, TLNKO cells; format: cell-based
# Method: To measure the level of β1 integrin activation, TLNKO cells were transfected in a 6-well plate for flow cytometry analysis. Cells were collected, washed, and resuspended in ice-cold staining buffer (1% BSA in PBS) before incubation with 9EG7 antibody (diluted 1:200 in staining buffer) for 1 h on ice. The cells were then washed three times with staining buffer. Alexa Fluor Plus 647 goat anti-rat (1:500 dilution in staining buffer, Invitrogen) secondary antibody was used to incubate the cells for 45 min on ice, before being washed twice with staining buffer and once with PBS. The cells were then fixed with 4% PFA for 15 min before a final wash with PBS. Flow cytometry analysis was performed using a Fortessa system (BD Biosciences) and FlowJo software.
# NIH3T3 cells [2] = experiment: adhesion stability under blebbistatin, NIH3T3 cells; format: cell-based, mouse; conditions: blebbistatin 50 µM, 60 min; n = 64 (WT), 49 (L702E), 62 (ΔPTB), 71 (Cterm) cells
# Method: (§2) Cells were fixed in 4% paraformaldehyde (PFA, Sigma-Aldrich), which had been prewarmed to 37°C for 15 min before being washed three times with PBS. For immunofluorescence staining, cells were permeabilized with 0.5% Triton X-100 (Sigma-Aldrich) at room temperature for 5 min before being washed three times with PBS. Blebbistatin (Tocris Bioscience) was diluted in dimethyl sulfoxide (Sigma-Aldrich) and used at a final concentration of 50 μM. […]
# (§3) Analysis of cell adhesion sites, FN fibrils, and LLPS condensates was performed using FIJI/ImageJ (version 1.54f) software ([Schindelin et al., 2012]). […] Prior to adhesion quantification, the images were background-subtracted using a rolling ball algorithm, followed by thresholding of adhesion sites and Analyse Particles functions in FIJI/ImageJ to quantify adhesions. Adhesion sites with sizes between 0.4 and 10 μm^2 were counted, except for adhesions in blebbistatin-treated cells, which were counted with sizes between 0.2 and 4 μm^2. […]
# U2OS TNS3KO cells [3] = experiment: adhesion stability under blebbistatin, U2OS TNS3KO cells; format: cell-based, human; conditions: blebbistatin 50 µM
# Method: as §1, §3
# NIH3T3 cells [4] = experiment: tensin3 condensate formation, NIH3T3 cells; format: cell-based, mouse; conditions: n = 181 cells (WT), 168 cells (L702E)
# Method: (§4) To establish a correlation between tensin3 expression and condensation formation, a maximum intensity Z-projection was performed on Z-stack images of NIH3T3 cells (step depth 0.2 μm). The integrated fluorescence intensity was measured by normalizing the mean pixel intensity of each cell to the average of all values in cells expressing mCh-TNS3. To measure the condensate coverage in NIH3T3 cells, the images were background-subtracted (rolling ball) and then thresholded. This was followed by the Analyse Particles function in FIJI/ImageJ to select round condensate structures (circularity 0.7–1.0) ([Bussi et al., 2023]; [Dumelie et al., 2024]) with a size larger than 0.1 μm^2. The same settings were applied to quantify the number of condensates in NIH3T3 and HFF cells.
# The percentage of NIH3T3 cells transfected with mCh-TNS3 that form phase-separated condensates was quantified manually in images (610 × 499 μm) acquired with a 20× objective. To quantify the mean radius (R) of the condensates, the area covered by the condensates was divided by the number of condensates for each cell to obtain the mean size (A) of the condensates, followed by the formula of R = √(A/3.14).
# TLNKO cells = experiment: cell spreading of TLNKO cells; format: cell-based; conditions: tensin3 expressed alone in TLNKO cells
# Method: as §1
# U2OS TNS3KO cells [5] = experiment: α5 integrin-positive FBs, rescue of TNS3KO cells; format: cell-based, human; conditions: FN-coated, overnight; SNAKA51 antibody
# Method: as §2, §3
# [6] = tested on: active β1 integrin, TLNKO cells; experiment: 9EG7-positive (active β1 integrin) adhesions, TLNKO cells; format: cell-based; conditions: co-expressed with GFP-TLN1, vs talin1 and vector control
# Method: as §2, §3
# NIH3T3 cells [7] = experiment: condensates on soft vs stiff PDMS, NIH3T3 cells; format: cell-based, mouse; conditions: 1.5 kPa vs 28 kPa FN-coated PDMS, overnight
# Method: Imaging dishes equipped with 40 µm-thick PDMS substrates (1.5 and 28 kPa) were purchased from ibidi. PDMS dishes were coated with 30 μg/ml FN for 1 h, followed by three washes with PBS. Dishes were incubated with DMEM for 10 min to equilibrate before cells were plated and incubated overnight at 37°C.
# as §4
# [8] = tested on: active β1 integrin, U2OS TNS3KO cells; experiment: β1 integrin-positive adhesions, U2OS TNS3KO cells; format: cell-based, human; conditions: FN-coated, overnight; 9EG7
# Method: as §2, §3
molecule,measurement,setting,value
"TNS3-WT: wild-type tensin3 (Homo sapiens), N-terminally labeled with GFP or mCherry, expressed in cells (protein, UniProt Q68CZ2 1-1445, looked up, full-length N-terminal GFP or mCherry tag, wild-type tensin3 (Homo sapiens), N-terminally labeled with GFP or mCherry, expressed in cells) MEEGHGLDLTYITERIIAVSFPAGCSEESYLHNLQEVTRMLKSKHGDNYLVLNLSEKRYDLTKLNPKIMDVGWPELHAPPLDKMCTICKAQESWLNSNLQHVVVIHCRGGKGRIGVVISSYMHFTNVSASADQALDRFAMKKFYDDKVSALMQPSQKRYVQFLSGLLSGSVKMNASPLFLHFVILHGTPNFDTGGVCRPFLKLYQAMQPVYTSGIYNVGPENPSRICIVIEPAQLLKGDVMVKCYHKKYRSATRDVIFRLQFHTGAVQGYGLVFGKEDLDNASKDDRFPDYGKVELVFSATPEKIQGSEHLYNDHGVIVDYNTTDPLIRWDSYENLSADGEVLHTQGPVDGSLYAKVRKKSSSDPGIPGGPQAIPATNSPDHSDHTLSVSSDSGHSTASARTDKTEERLAPGTRRGLSAQEKAELDQLLSGFGLEDPGSSLKEMTDARSKYSGTRHVVPAQVHVNGDAALKDRETDILDDEMPHHDLHSVDSLGTLSSSEGPQSAHLGPFTCHKSSQNSLLSDGFGSNVGEDPQGTLVPDLGLGMDGPYERERTFGSREPKQPQPLLRKPSVSAQMQAYGQSSYSTQTWVRQQQMVVAHQYSFAPDGEARLVSRCPADNPGLVQAQPRVPLTPTRGTSSRVAVQRGVGSGPHPPDTQQPSPSKAFKPRFPGDQVVNGAGPELSTGPSPGSPTLDIDQSIEQLNRLILELDPTFEPIPTHMNALGSQANGSVSPDSVGGGLRASSRLPDTGEGPSRATGRQGSSAEQPLGGRLRKLSLGQYDNDAGGQLPFSKCAWGKAGVDYAPNLPPFPSPADVKETMTPGYPQDLDIIDGRILSSKESMCSTPAFPVSPETPYVKTALRHPPFSPPEPPLSSPASQHKGGREPRSCPETLTHAVGMSESPIGPKSTMLRADASSTPSFQQAFASSCTISSNGPGQRRESSSSAERQWVESSPKPMVSLLGSGRPTGSPLSAEFSGTRKDSPVLSCFPPSELQAPFHSHELSLAEPPDSLAPPSSQAFLGFGTAPVGSGLPPEEDLGALLANSHGASPTPSIPLTATGAADNGFLSHNFLTVAPGHSSHHSPGLQGQGVTLPGQPPLPEKKRASEGDRSLGSVSPSSSGFSSPHSGSTISIPFPNVLPDFSKASEAASPLPDSPGDKLVIVKFVQDTSKFWYKADISREQAIAMLKDKEPGSFIVRDSHSFRGAYGLAMKVATPPPSVLQLNKKAGDLANELVRHFLIECTPKGVRLKGCSNEPYFGSLTALVCQHSITPLALPCKLLIPERDPLEEIAESSPQTAANSAAELLKQGAACNVWYLNSVEMESLTGHQAIQKALSITLVQEPPPVSTVVHFKVSAQGITLTDNQRKLFFRRHYPVNSVIFCALDPQDRKWIKDGPSSKVFGFVARKQGSATDNVCHLFAEHDPEQPASAIVNFVSKVMIGSPKKV",proteins detected in condensates,NIH3T3 cells [1],"talin1 and talin2, vinculin, tensin1, and LIMD1, together with the microtubule-targeting protein KANK1 and KANK2, and DLC1 and GIGYF1"
same,proteins absent from condensates,NIH3T3 cells [1]; listed as GFP-TNS3,"kindlin2 and GIT1, which regulate membrane protrusion ([Böttcher et al., 2017]; [Manabe et al., 2002]), were absent; also recorded: negative for G3BP1, TDP-43 (Fig. S4 J), or tyrosine phosphorylation"
same,"integrin activation, flow cytometry","β1 integrin, TLNKO cells; co-expressed with GFP-TLN1, vs mCh-vector, triplicate",increased integrin activation
same,rescue of integrin activation,"β1 integrin, TLNKO cells; tensin3 expressed alone in TLNKO cells, 9EG7",did not rescue cell spreading (Fig. S3 A) or integrin activation
same,construct-positive adhesions after blebbistatin,NIH3T3 cells [2],largely remain after blebbistatin treatment
same,subcellular localization of construct under blebbistatin,U2OS TNS3KO cells [3],remained in adhesion structures
same,adhesion stability under actomyosin inhibition,U2OS TNS3KO cells [3]; 60 min,remained present despite actomyosin inhibition
same,"Spearman's r, expression level vs condensate coverage",NIH3T3 cells [4],0.8773
same,rescue of cell spreading,TLNKO cells,did not rescue cell spreading
same,α5 integrin-positive adhesions,U2OS TNS3KO cells [5],α5 integrin-positive adhesions in the peripheral and central areas of the cells
same,fold change in 9EG7-positive adhesion sites,[6],fivefold increase in adhesion sites
same,condensates on soft vs stiff substrate,NIH3T3 cells [7],significant twofold increase
same,rescue of adhesion formation,[8],fully rescued adhesion formation
